# Laboratory results as given in patent EP4703390A1 (Chia Tai Tianqing Pharmaceutical Group Co., Ltd., dated 2026).
# Key:
# [1] = target: T1, EGFR and c-Met on the surface of tumor cells (human, UniProt P00533 25-1210; P08581 25-1390); test: cell-based or functional assay
# [2] = target: T1, EGFR and c-Met on the surface of tumor …; test: cell-based or functional assay; remark: listed apart in the source
# [3] = target: T1, EGFR and c-Met on the surface of tumor …; test: cell-based or functional assay; remark: listed apart in the source
# [4] = target: T1, EGFR and c-Met on the surface of tumor …; test: flow cytometry, A431 cells (high EGFR, low c-Met)
# [5] = target: T1, EGFR and c-Met on the surface of tumor …; test: flow cytometry, NCI-H1993 cells (medium EGFR, high c-Met)
# [6] = target: T1, EGFR and c-Met on the surface of tumor …; test: flow cytometry, NCI-H1975 cells (medium EGFR, low to medium c-Met)
# [7] = target: T2, Human c-Met-His (SinoBiological, Cat. No. 10692-H08H) (human, UniProt P08581 25-932); test: SPR (Biacore), antibody captured on anti-hIgG Fc chip, human c-Met-His as analyte
# T2 construct: Bought protein; also called c-Met-His protein; human c-Met protein; not shown: His tag
# T2 sequence (P08581 25-932 limits assumed): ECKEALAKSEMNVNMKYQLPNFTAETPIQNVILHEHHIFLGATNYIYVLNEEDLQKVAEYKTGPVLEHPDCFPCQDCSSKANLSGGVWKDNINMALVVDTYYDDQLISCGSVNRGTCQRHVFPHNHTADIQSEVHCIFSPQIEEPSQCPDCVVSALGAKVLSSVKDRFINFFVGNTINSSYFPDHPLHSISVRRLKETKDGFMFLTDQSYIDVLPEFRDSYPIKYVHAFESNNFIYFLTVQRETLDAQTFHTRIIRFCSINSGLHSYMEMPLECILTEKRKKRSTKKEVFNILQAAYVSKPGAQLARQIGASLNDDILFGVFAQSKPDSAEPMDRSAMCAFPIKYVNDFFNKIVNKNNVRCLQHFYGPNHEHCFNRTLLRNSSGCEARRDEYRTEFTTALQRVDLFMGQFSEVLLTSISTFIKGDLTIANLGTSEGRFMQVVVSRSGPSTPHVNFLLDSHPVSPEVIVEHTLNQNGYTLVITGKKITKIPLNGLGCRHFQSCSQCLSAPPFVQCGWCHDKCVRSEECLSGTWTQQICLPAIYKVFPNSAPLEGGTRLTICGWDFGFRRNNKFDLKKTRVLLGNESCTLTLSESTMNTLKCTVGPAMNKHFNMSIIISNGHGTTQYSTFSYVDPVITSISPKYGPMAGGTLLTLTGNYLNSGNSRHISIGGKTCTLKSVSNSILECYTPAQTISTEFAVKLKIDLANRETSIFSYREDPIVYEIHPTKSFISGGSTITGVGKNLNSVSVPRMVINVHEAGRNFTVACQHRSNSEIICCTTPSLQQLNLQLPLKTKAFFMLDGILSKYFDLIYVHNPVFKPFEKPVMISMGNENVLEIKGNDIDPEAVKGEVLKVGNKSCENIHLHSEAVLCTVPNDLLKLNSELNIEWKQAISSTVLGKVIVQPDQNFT
Binder,IC50 for inhibiting proliferation of KP4 cells (CCK8) [1] [nM],"IC50 for inhibiting proliferation of NCI-H292 cells (CCK8, with 1 ng/mL HGF) [1] [nM]","ADCC lysis EC50, KP4 cells, human PBMC effectors [2] [nM]","ADCC lysis EC50, NCI-H292 cells, human PBMC effectors [2] [nM]","endocytic activity EC50, A431 cells (flow cytometry, internalization reagent) [3] [nM]","endocytic activity EC50, NCI-H441 cells (flow cytometry, internalization reagent) [3] [nM]","endocytic activity EC50, NCI-H1975 cells (flow cytometry, internalization reagent) [3] [nM]",EC50 [4] [nM],EC50 [5] [nM],EC50 [6] [nM],Kd [7] [nM],koff [7] [s⁻¹],kon [7] [M⁻¹ s⁻¹]
amivantamab (bispecific antibody) chain 1: not shown chain 2: not shown chain 3: not shown chain 4: DIQMTQSPSSVSASVGDRVTITCRASQGISNWLAWFQHKPGKAPKLLIYAASSLLSGVPSRFSGSGSGTDFTLTISSLQPEDFATYYCQQANSFPITFGQGTRLEIKRTVAAPSVFIFPPSDEQLKSGTASVVCLLNNFYPREAKVQWKVDNALQSGNSQESVTEQDSKDSTYSLSSTLTLSKADYEKHKVYACEVTHQGLSSPVTKSFNRGEC,29,45.8,0.0171,0.021,15.1,35.6,15.2,1.62,0.596,0.378,,,
"anti-EGFR/anti-c-Met multispecific antibody V35 (bispecific antibody, human IgG1, kappa, Three chains, trivalent: 1B-1B6-V2 VHH - 1B-1C7-V1 VHH - Fc plus anti-EGFR Fab arm; knob-into-hole Fc; expressed in FUT8-/- CHO-S cells) QVQLLESGGGSVQAGGSLRLSCAASGHTYSSGCMGWFRQAPGKGREGVATIYTRNDFTYYSDSVKGRFTISRDNSKNTVYLQMNSLRAEDTAVYYCAAGSPFRYAGAWNVCGLKEEDYNYWGQGTLVTVSSGGGGSGGGGSQVQLVESGGGSVQPGGSLRLSCAASGYSYSANCVGWFRQAPGKGREGVSAINTGGETATYADFVKGRFTISRDNAKNTVYLQMNSLRAEDTAVYYCAAVGTRKYWDECSLSQHAYKNWGQGTLVTVSSGEPKSSDKTHTCPPCPAPELLGGPSVFLFPPKPKDTLMISRTPEVTCVVVDVSHEDPEVKFNWYVDGVEVHNAKTKPREEQYNSTYRVVSVLTVLHQDWLNGKEYKCKVSNKALPAPIEKTISKAKGQPREPQVCTLPPSREEMTKNQVSLSCAVKGFYPSDIAVEWESNGQPENNYKTTPPVLDSDGSFFLVSKLTVDKSRWQQGNVFSCSVMHEALHNRFTQKSLSLSPGK heavy: not shown light: not shown",,,,,,,,,,,0.318,3.34e-05,105000
"anti-EGFR/anti-c-Met multispecific antibody V74 (bispecific antibody, human IgG1, kappa, knob-into-hole Fc; expressed in FUT8-/- CHO-S cells) EVQLVESGGGSVQAGGSLRLSCAVSGFTVSSNFMAWFRQAPGKGREWVSTITTGAGNTAYADSVKGRFTISEDNSKNTAYLQMNSLRAEDTAVYYCAAGRGGFWRPAEYDFWGQGTTVTVSSGGGGSQVQLVESGGGSVQPGGSLRLSCAASGYSYSANCVGWFRQAPGKGREGVSAINTGGETATYADFVKGRFTISRDNAKNTVYLQMNSLRAEDTAVYYCAAVGTRKYWDECSLSQHAYKNWGQGTLVTVSSGEPKSSDKTHTCPPCPAPELLGGPSVFLFPPKPKDTLMISRTPEVTCVVVDVSHEDPEVKFNWYVDGVEVHNAKTKPREEQYNSTYRVVSVLTVLHQDWLNGKEYKCKVSNKALPAPIEKTISKAKGQPREPQVCTLPPSREEMTKNQVSLSCAVKGFYPSDIAVEWESNGQPENNYKTTPPVLDSDGSFFLVSKLTVDKSRWQQGNVFSCSVMHEALHNRYTQKSLSLSPGK heavy: not shown light: not shown",,,,,,,,,,,0.548,0.000128,234000
"anti-EGFR/anti-c-Met multispecific antibody V12 (bispecific antibody, human IgG1, kappa, Three chains, trivalent: 1B-1B6 VHH - 1B-1C7 VHH - Fc plus anti-EGFR Fab arm; knob-into-hole Fc; expressed in FUT8-/- CHO-S cells) QVQLVESGGDSVQAGGSLRLSCAASAHAYSSGCMGWFRQAPGKGREGVATIYTRNDFTYYSDSVKGRFTISRDDAKNTVYLQVNSLKAEDTAMYYCAAGSPFRYAGAWNVCGLKEEDYNYWGQGTLVTVSSGGGGSGGGGSQVQLVESGGGLVQPGGSLRLSCAASGYSYSANCVGWFYQAPGKEREGVAAINTGGETATYADFVKGRFTISQDYAKNTVYLQMNSLKSEDTGMYYCAAVGTRKYWDECSLSQHAYKNWGQGTLVTVSSGEPKSSDKTHTCPPCPAPELLGGPSVFLFPPKPKDTLMISRTPEVTCVVVDVSHEDPEVKFNWYVDGVEVHNAKTKPREEQYNSTYRVVSVLTVLHQDWLNGKEYKCKVSNKALPAPIEKTISKAKGQPREPQVCTLPPSREEMTKNQVSLSCAVKGFYPSDIAVEWESNGQPENNYKTTPPVLDSDGSFFLVSKLTVDKSRWQQGNVFSCSVMHEALHNRFTQKSLSLSPGK heavy: not shown light: not shown",,,,,,,,,,,0.325,4.62e-05,142000

# More lines, now with the values ahead:
IC50 for inhibiting proliferation of KP4 cells (CCK8) [1] [nM],"IC50 for inhibiting proliferation of NCI-H292 cells (CCK8, with 1 ng/mL HGF) [1] [nM]","ADCC lysis EC50, KP4 cells, human PBMC effectors [2] [nM]","ADCC lysis EC50, NCI-H292 cells, human PBMC effectors [2] [nM]","endocytic activity EC50, A431 cells (flow cytometry, internalization reagent) [3] [nM]","endocytic activity EC50, NCI-H441 cells (flow cytometry, internalization reagent) [3] [nM]","endocytic activity EC50, NCI-H1975 cells (flow cytometry, internalization reagent) [3] [nM]",EC50 [4] [nM],EC50 [5] [nM],EC50 [6] [nM],Kd [7] [nM],koff [7] [s⁻¹],kon [7] [M⁻¹ s⁻¹],Binder
,,,,,,,,,,0.368,3.57e-05,97000,"anti-EGFR/anti-c-Met multispecific antibody V41 (bispecific antibody, human IgG1, kappa, Three chains, trivalent: 1B-1B6-V1 VHH - 1B-1C7-V1 VHH - Fc plus anti-EGFR Fab arm; knob-into-hole Fc; expressed in FUT8-/- CHO-S cells) QVQLLESGGGSVQAGGSLRLSCAASGFTFSSGCMGWFRQAPGKGREGVATIYTRNDFTYYSDSVKGRFTISRDNSKNTVYLQMNSLRAEDTAVYYCAAGSPFRYAGAWNVCGLKEEDYNYWGQGTLVTVSSGGGGSGGGGSQVQLVESGGGSVQPGGSLRLSCAASGYSYSANCVGWFRQAPGKGREGVSAINTGGETATYADFVKGRFTISRDNAKNTVYLQMNSLRAEDTAVYYCAAVGTRKYWDECSLSQHAYKNWGQGTLVTVSSGEPKSSDKTHTCPPCPAPELLGGPSVFLFPPKPKDTLMISRTPEVTCVVVDVSHEDPEVKFNWYVDGVEVHNAKTKPREEQYNSTYRVVSVLTVLHQDWLNGKEYKCKVSNKALPAPIEKTISKAKGQPREPQVCTLPPSREEMTKNQVSLSCAVKGFYPSDIAVEWESNGQPENNYKTTPPVLDSDGSFFLVSKLTVDKSRWQQGNVFSCSVMHEALHNRFTQKSLSLSPGK heavy: not shown light: not shown"
13.1,13.7,0.0117,0.0135,10.5,11.8,9.66,1.85,1.03,0.755,0.438,4.39e-05,100000,"anti-EGFR/anti-c-Met multispecific antibody V42 (bispecific antibody, human IgG1, kappa, Three chains, trivalent: 1B-1B6-V3 VHH - 1B-1C7-V1 VHH - Fc plus anti-EGFR Fab arm; knob-into-hole Fc; expressed in FUT8-/- CHO-S cells) QVQLLESGGGSVQAGGSLRLSCAASGHTYSSGCMGWFRQAPGKGREGVATIYTRNDFTYYSDTVKGRFTISRDNSKNTVYLQMNSLRAEDTAVYYCAAGSPFRYAGAWNVCGLKEEDYNYWGQGTLVTVSSGGGGSGGGGSQVQLVESGGGSVQPGGSLRLSCAASGYSYSANCVGWFRQAPGKGREGVSAINTGGETATYADFVKGRFTISRDNAKNTVYLQMNSLRAEDTAVYYCAAVGTRKYWDECSLSQHAYKNWGQGTLVTVSSGEPKSSDKTHTCPPCPAPELLGGPSVFLFPPKPKDTLMISRTPEVTCVVVDVSHEDPEVKFNWYVDGVEVHNAKTKPREEQYNSTYRVVSVLTVLHQDWLNGKEYKCKVSNKALPAPIEKTISKAKGQPREPQVCTLPPSREEMTKNQVSLSCAVKGFYPSDIAVEWESNGQPENNYKTTPPVLDSDGSFFLVSKLTVDKSRWQQGNVFSCSVMHEALHNRFTQKSLSLSPGK heavy: not shown light: not shown"
,,,,,,,,,,0.276,7.01e-05,254000,"anti-EGFR/anti-c-Met multispecific antibody V67 (bispecific antibody, human IgG1, kappa, knob-into-hole Fc; expressed in FUT8-/- CHO-S cells) EVQLVESGGGSVQAQGSLRLSCTVSGSTYSSNFMAWFRQAPGKEREWVATITTGAGNTAYADSVKGRFTISEDNAKRTAYLQMNSLKPEDTAVYYCAAGRGGFWRPAEYDFWGQGTQVTVSSGGGGSQVQLVESGGGSVQPGGSLRLSCAASGYSYSANCVGWFRQAPGKGREGVSAINTGGETATYADFVKGRFTISRDNAKNTVYLQMNSLRAEDTAVYYCAAVGTRKYWDECSLSQHAYKNWGQGTLVTVSSGEPKSSDKTHTCPPCPAPELLGGPSVFLFPPKPKDTLMISRTPEVTCVVVDVSHEDPEVKFNWYVDGVEVHNAKTKPREEQYNSTYRVVSVLTVLHQDWLNGKEYKCKVSNKALPAPIEKTISKAKGQPREPQVCTLPPSREEMTKNQVSLSCAVKGFYPSDIAVEWESNGQPENNYKTTPPVLDSDGSFFLVSKLTVDKSRWQQGNVFSCSVMHEALHNRYTQKSLSLSPGK heavy: not shown light: not shown"
7.99,5.36,0.027,0.0181,8.33,16.7,12.4,1.91,1.02,0.794,0.458,9.03e-05,197000,"anti-EGFR/anti-c-Met multispecific antibody V73 (bispecific antibody, human IgG1, kappa, knob-into-hole Fc; expressed in FUT8-/- CHO-S cells) EVQLVESGGGSVQAGGSLRLSCAVSGFTVSSNFMAWFRQAPGKGREWVSTITTGAGNTAYADSVKGRFTISEDNSKNTLYLQMNSLRAEDTAVYYCAAGRGGFWRPAEYDFWGQGTTVTVSSGGGGSQVQLVESGGGSVQPGGSLRLSCAASGYSYSANCVGWFRQAPGKGREGVSAINTGGETATYADFVKGRFTISRDNAKNTVYLQMNSLRAEDTAVYYCAAVGTRKYWDECSLSQHAYKNWGQGTLVTVSSGEPKSSDKTHTCPPCPAPELLGGPSVFLFPPKPKDTLMISRTPEVTCVVVDVSHEDPEVKFNWYVDGVEVHNAKTKPREEQYNSTYRVVSVLTVLHQDWLNGKEYKCKVSNKALPAPIEKTISKAKGQPREPQVCTLPPSREEMTKNQVSLSCAVKGFYPSDIAVEWESNGQPENNYKTTPPVLDSDGSFFLVSKLTVDKSRWQQGNVFSCSVMHEALHNRYTQKSLSLSPGK heavy: not shown light: not shown"
